Assay results reported in patent publication US20040175362A1.

Target: coxsackie-adenovirus receptor (CAR) (human) (UniProt P78310)
Assay: cell-based or functional assay

Sequence of UniProt P78310 (P78310 20-365): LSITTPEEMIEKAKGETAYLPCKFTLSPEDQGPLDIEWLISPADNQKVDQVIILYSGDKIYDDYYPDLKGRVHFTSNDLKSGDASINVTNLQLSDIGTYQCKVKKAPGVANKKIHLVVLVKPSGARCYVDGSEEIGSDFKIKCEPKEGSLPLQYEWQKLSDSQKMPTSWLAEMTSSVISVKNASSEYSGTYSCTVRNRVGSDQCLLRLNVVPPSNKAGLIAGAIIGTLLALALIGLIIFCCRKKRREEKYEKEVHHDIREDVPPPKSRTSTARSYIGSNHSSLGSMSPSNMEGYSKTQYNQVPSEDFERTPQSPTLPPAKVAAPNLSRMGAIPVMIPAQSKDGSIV

Substance | gene expression blocked by recombinant Ad5 fiber knob, Ad5lucRGD on 293 cells | gene transfer blocked by knob protein, Ad5lucRGD on primary ovarian cancer cells, MOI 1 pfu/cell | luciferase activity blocked by purified fiber knob, Ad5lucRGD on SKOV3.1p1 cells | gene transfer blocked by purified fiber knob, AdCMVLuc on SKOV3.1p1 cells | luciferase activity blocked by recombinant Ad5 fiber knob, AdCMVLuc on 293 cells
RGD-modified Ad5 fiber (… in the HI loop of the knob) as carried by the virions of Ad5lucRGD (from UniProt P11818 1-546; P11818 547-581) | 40 to 60% | 20% | 20% |  | 
wild type Ad5 fiber as carried by the virions of AdCMVLuc (from UniProt P11818 1-581) |  |  |  | > 90% | 85 to 93%
